{"source": "patent US7629135B2", "about": "“Toll-like receptor agonists and antagonists and methods of use thereof” (The Board of Trustees of the University of Illinois, priority 2006, dated 2009)", "molecules": {"B1": {"name": "SAA: Recombinant human SAA purchased from PeproTech; major acute-phase protein of 104 amino acids (protein, UniProt P0DJI8 19-122, looked up)", "Serum amyloid A-1 protein": "RSFFSFLGEAFDGARDMWRAYSDMREANYIGSDKYFHARGNYDAAKRGPGGAWAAEVITDARENIQRFFGHGAEDSLADQAANEWGRSGKDPNHFRPAGLPEKY"}}, "key": {"[1]": {"tested_on": "RelA/p65 binding to the CK-1 site of the G-CSF promoter", "assay": "Chromatin immunoprecipitation (ChIP) assay in RAW264.7 cells", "format": "cell-based, mouse", "conditions": "SAA 1 μM or TNFα 50 ng/ml", "description": "To investigate the mechanism for SAA-induced G-CSF production, the level of G-CSF transcript in SAA-stimulated BMDM was determined. […] The induction of G-CSF transcript peaked at 4 h after SAA stimulation. Since transcription of the G-CSF gene involves NF-κB binding to the RelA/p65 consensus element in the CK-1 site of the G-CSF promoter (Dunn et al., 1994; Hareng and Hartung, 2002), the role of NF-κB in SAA-stimulated G-CSF expression was determined. […] Using oligonucleotide probe based on the sequence of the CK-1 site (−161 to −152 in the G-CSF promoter), a protein •DNA complex (FIG. 2C) was identified. […] Inclusion of a RelA/p65 antibody blocking peptide in the assay abrogated the immunoprecipitation (FIG. 2D).\nChIP assay: Reagents were obtained from Upstate Biotechnology, and ChIP assay was performed as per manufacturers specifications with minor modifications. Briefly, a total of 1×10^7 RAW264.7 cells were harvested and resuspended in a serum-free DMEM medium absence or presence of 1 μM SAA, or 50 ng/ml of TNFα, and incubated for 30 or 60 min at 37° C. Following stimulation, cells were crosslinked and then washed and resuspended in SDS-lysis buffer, and were sonicated (4 times for 10 s each, with a setting at ‘4’ on a Fisher Sonic 60 dismembrenator). […] The PCR products were analyzed on a 2.5% agarose gel."}, "[2]": {"tested_on": "Human peripheral blood monocytes (PBMC)", "assay": "SAA-induced G-CSF secretion in human PBMC (ELISA)", "format": "cell-based", "conditions": "SAA 1 μM", "description": "SAA induces G-CSF expression in monocytes and macrophages: To determine whether SAA plays a role in neutrophilia, the ability of SAA to stimulate G-CSF expression was investigated. Human peripheral blood monocytes (PBMC) were incubated with SAA, and the concentration of secreted G-CSF in the culture medium was determined at various time points after stimulation. The concentration of SAA used in this experiment (1 μM) was well within its physiological range (0.08 μM to 80 μM). […] Since subsequent studies used mice for measurement of G-CSF secretion and neutrophilia, SAA-induced G-CSF expression in mouse bone marrow derived macrophages (BMDM) was determined, of which 98% were F4/80^+ CD14^+ based on flow cytometry analysis. […] The basal level of G-CSF remained stable at approximately 42 pg/ml/10^6 cells over the entire course of incubation.\nCell preparation and culture: Human peripheral blood monocytes were prepared from fresh, heparinized venous blood by Ficoll-Hypaque density-gradient centrifugation. […]\nMeasurement of G-CSF expression: To measure the secreted G-CSF from human monocytes and mouse macrophages in vitro, cells were placed in serum-free DMEM medium and stimulated with the indicated ligands. […] Real-time quantitative PCR was performed on a ABI PRISM 7000 Sequence Detection System (Applied Biosystems) as described previously (He et al., 2006). […]"}, "[3]": {"tested_on": "mouse macrophage cell line RAW264.7", "assay": "G-CSF secretion in RAW264.7 cells (ELISA)", "format": "cell-based", "conditions": "SAA 1 μM, time course"}}, "data": [{"molecule": "B1", "values": [{"measurement": "pull-down of CK-1 DNA fragment by anti-RelA/p65 antibody", "setting": "[1]", "result": "able to pull-down the CK-1 DNA fragment"}, {"measurement": "secreted G-CSF", "setting": "[2]; after 4 h of stimulation", "result": "2,546 pg/ml/10^6 cells"}, {"measurement": "secreted G-CSF", "setting": "[2]; end of 24 h incubation", "result": "7,340 pg/ml/10^6 cells"}, {"measurement": "G-CSF production", "setting": "[3]", "result": "time-dependent production of G-CSF"}]}]}
